Each binder was assayed against T1, recombinant human ErbB2/Fc chimera (human, UniProt P04626 23-652) (assay: ELISA, coated ErbB2/Fc).
T1 construct: bought from R&D Systems; also called rhErbB2-Fc; rhErb2-Fc; Fc part of the bought chimera not given; not described

| binding result | Binder |
| --- | --- |
| binds | 17B5 (VHH, C-term myc-His6 tag) VHH: EVQLVESGGGLVQTGGSLRLSCAASGSTFRTDMMGWYRQAPGKQREFVASITKFGSTNYADSVKGRFTISNDNAKDTVYLQMNSLKSEDTAVYYCRNFNRDLWGQGTQVTVSS |
| binds | 13D4 (VHH, C-term myc-His6 tag) VHH: EVQLVESGGGLVQAGGSLRLSCVVSGIPSSIRAMAWYRQAPGRQRDWVATIYSPSGSAVYADSVKGRFTISSDNAKSTIYLQMNSLEPDDTAVYYCRDVNREYWGQGTQVTVSS |
| binds | 15B2 (VHH, C-term myc-His6 tag) VHH: EVQLVESGGGLVQAGGSLRLSCVVSGIPSSIRAMAWYRQAPGRQRDWVATIYSPSGSAVYADSVKGRFTISSDNAKSTIYLQMNSLKPDDTAVYYCRDVNRDYWGQGTQVTVSS |
| binds | 15B11 (VHH, C-term myc-His6 tag) VHH: EVQLVESGGGSVQAGGSLRLSCVVSGIPSSIRAMAWYRQAPGRQRDWVATIYSRSGGAVYADSVKGRFTISSDNAKNTIYLQMNSLKPDDTAVYYCRDVNRDYWGQGTQVTVSS |
| binds | 15G5 (VHH, C-term myc-His6 tag) VHH: EVQLVESGGGLVQAGGSLRLSCVVSGIPSTIRAMAWYRQAPGRQRDWVATIYSPSGSAVYADSVKGRFTISSDNAKKTIYLQMNSLKPDDTAVYYCRDVNREYWGQGTQVTVSS |
| binds | 17C6 (VHH, C-term myc-His6 tag) VHH: EVQLVESGGGLVQAGGSLTLSCAASGSTSSLDIMAWYRQAPEKQRELVASVSGGGNSDYASSVKGRFTISGDTAKSTLYLQMNSLKPEDTAMYYCYGRDYYYMPFWGQGTQVTVSS |
| binds | 46G1 (VHH, C-term myc-His6 tag) VHH: EVQLVESGGGLVQAGGSLRLSCAASGRTFSDDAMGWFRQAPGKERECVASLYLNGDYPYYADSVKGRFTISRDNAKNAVILQMNNLKTEDTAVYYCAAKPGWVARDPSQYNYWGQGTQVTVSS |
| binds | 46E4 (VHH, C-term myc-His6 tag) VHH: EVQLVESGGGLVQAGGSLRLSCAASGRAFKDDAVGWFRQAPGKERECVASMYLDGDYPYYADSVKGRFTISRDNAKNAVILQMNNLKTEDTAVYYCAAKPGWVARDPSEYNYWGQGTQVTVSS |
| binds | 13C9 (VHH, C-term myc-His6 tag) VHH: EVQLVESGGGLVQAGGSLRLSCVASGIPSIHAMAWYRQAPGKQRDWGATTYSRGGTTYNDSAKGRFTISRDNAKKTVYLQMNSLKPEDTAVYYCRDVNRDYWGQGTQVTVSS |
| binds | 15C9 (VHH, C-term myc-His6 tag) VHH: EVQLVESGGGLVQAGGSLKLSCVNSGIPSTLRAMAWYRQAPGRQRDWVATSSNTGGTTYDDSVKGRFTISRDNAKNTVYLQMNSLKPEDTGVYYCRDVNRDLWGQGTQVTVSS |
| binds | 15G10 (VHH, C-term myc-His6 tag) VHH: EVQLVESGGGLVQAGGSLSLSCAASGRFFSTRVMAWYRQTPGKQREFVASMRGSGSTNYADSARGRFAISRDNAKNTVYLQMNSLKPEDTAVYYCRDINEDQWGQGTQVTVSS |
| binds | 17D5 (VHH, C-term myc-His6 tag) VHH: EVQLVESGGGLVQPGGSLRLSCAASGIIGTIRTMAWYRQAPGKQRDWVASIGTRGAPVYADSVNGRFTISRDGATNTVFLQMNNLKPEDTAVYYCRDVNRDYWGQGTQVTVSS |
| binds | 13D10 (VHH, C-term myc-His6 tag) VHH: EVQLVESGGGLVQPGGSLRLSCAASSVITLDSNAIGWFRQAPGKEREEVSCIASSDGSTYYAESVKGRFTISKDYTRNTVYLQVNSLKPEDTAVYHCATDANPNCGLNVWNSWGQGTQVTVSS |

From patent US20150232562A1 (Ablynx, published 2015)
